Laboratory results: US20240218035

Biological target: inactive hepatocyte growth factor (pro-HGF), single-stranded form, in CHO culture supernatant
Sequence (chain, as listed by the source): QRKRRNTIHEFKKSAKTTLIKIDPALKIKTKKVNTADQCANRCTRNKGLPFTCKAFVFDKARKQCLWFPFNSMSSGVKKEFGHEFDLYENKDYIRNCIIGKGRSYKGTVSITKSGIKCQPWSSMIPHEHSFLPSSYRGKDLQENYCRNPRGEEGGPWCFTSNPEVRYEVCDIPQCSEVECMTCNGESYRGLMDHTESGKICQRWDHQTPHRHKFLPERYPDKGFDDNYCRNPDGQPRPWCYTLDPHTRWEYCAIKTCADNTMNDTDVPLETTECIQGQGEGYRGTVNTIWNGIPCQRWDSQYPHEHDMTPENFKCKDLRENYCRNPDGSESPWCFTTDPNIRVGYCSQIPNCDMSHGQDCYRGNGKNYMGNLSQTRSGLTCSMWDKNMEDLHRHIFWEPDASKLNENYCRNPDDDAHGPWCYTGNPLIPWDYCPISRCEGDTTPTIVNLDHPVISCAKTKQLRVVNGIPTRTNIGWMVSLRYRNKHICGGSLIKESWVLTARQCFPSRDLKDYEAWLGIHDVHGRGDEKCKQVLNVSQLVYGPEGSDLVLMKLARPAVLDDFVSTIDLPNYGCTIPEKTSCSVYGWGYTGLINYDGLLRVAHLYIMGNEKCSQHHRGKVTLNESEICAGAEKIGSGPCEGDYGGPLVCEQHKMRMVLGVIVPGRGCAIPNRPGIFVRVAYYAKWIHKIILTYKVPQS

B1: active hepatocyte growth factor activator (active HGFA), as activated HGFA culture supernatant from CHO cells (protein)
chain: VQLSPDLLATLPEPASPGRQACGRRHKKRTFLRPRIIGGSSSLPGSHPWLAAIYIGDSFCAGSLVHTCWVVSAAHCFSHSPPRDSVSVVLGQHFFNRTTDVTQTFGIEKYIPYTLYSVFNPSDHDLVLIRLKKKGDRCATRSQFVQPICLPEPGSTFPAGHKCQIAGWGHLDENVSGYSSSLREALVPLVADHKCSSPEVYGADISPNMLCAGYFDCKSDACQGDSGGPLACEKNGVAYLYGIISWGDGCGRLHKPGVYTRVANYVDWINDRIRPPRRLVAPS
- activation state of pro-HGF confirmed with SDS-PAGE (conversion of the single strand into α and β chains) after about 20 hours of reaction at 25° C.: under a reductive condition after activation the single strand substance had disappeared and separated into α and β chains, and thus sufficient activation of pro-HGF was confirmed
